Reference: US20220249369A1, “BIOLOGICAL BITS AS COMPUTABLE ELEMENTS WITHIN LIVING SYSTEMS” (GEORGIA TECH RESEARCH CORPORATION, priority 2018, published 2022)
Where no end group is shown, it is not given here. [ ]: non-standard residue; d: D form. The star is where a group is joined. 5FAM = O=C1OC2(c3ccc(O)cc3Oc3cc(O)ccc32)c2ccc(C(=O)*)cc21

Columns and labels:
[1] = molecular target: plasmin (Homo sapiens, UniProt P00747); test: Protease cleavage assay, U-gate on two-state protease bit; type: biochemical; conditions: n=3; for state probability (relative cleavage velocity) after first U-gate: plasmin exposed to state 0 and state 1 substrates
Procedure: Protease cleavage assays: All protease cleavage assays were performed with a BioTek Cytation 5 Imaging Plate Reader, taking fluorescent measurements at 485/528 nm and 540/575 nm (excitation/emission) for read-outs measuring peptide substrates terminated with FITC (Fluorescein isothiocyanate) and 5-TAMRA (5-Carboxytetramethylrhodamine), respectively. Kinetic measurements were taken every minute over the course of 60-120 minutes at 37° C. West Nile Virus NS3 protease (WNVp) and Tobacco Etch Virus protease (TEVp), along with their substrates, inhibitors and buffers were obtained from Anaspec, Inc. (Fremont, Calif.). Phospholipase C (PLC), Phosphatidylinositol-Specific (from Bacillus cereus) was purchased from Thermo Fisher Scientific (Waltham, Mass.). Activity RFU measurements were normalized to time 0 measurement, and as such represent fold change in signal. Granzyme B (GzmB) was purchased from PeproTech, Inc. (Rocky Hill, N.J.). Thrombin and Factor XIa were purchased from Haematologic Technologies (Essex, Vt.). Outer Membrane Protease T (OmpT, Protease 7) was purchased from Lifespan Biosciences (Seattle, Wash.). C1r was purchased from Millipore Sigma (Burlington, Mass.). GzmB, Thrombin, Factor XIa, and C1r fluorescent peptide substrates were custom ordered from CPC Scientific (Sunnyvale, Calif.). OmpT fluorescent peptide substrate was custom ordered from Genscript (Piscataway, N.J.). See Table 1 and Table 2 for more information regarding proteases, substrates, and inhibitors.
For FIGS. 5G-5I and 5N-5Q: 2 uL of thrombin (10.1 mg/mL) or plasmin (6.9 mg/mL) were added to 18 uL of respective state 1 or state 0 substrate (2 uM). Velocities of Thrombin and Plasmin cutting their respective state 1 or state 0 substrates were calculated over the first 5 minutes of incubation. These velocities were normalized by the sum of the state 1 and state 0 velocity. Therefore, the values plotted as probability in FIG. 4 are relative velocities. […]

[2] = tested on: DH5α Escherichia coli; type: cell-based; conditions: 37° C., 1 hour
From the text: FIGS. 8A-8B show the results of unlocking peptide caged liposomes with increasing peptide crosslinking densities (levels 0-8). Eight levels of increasing peptide cage crosslinking were used to determine the number of bacteria required to unlock each level. FIG. 8C is a graph showing bacterial cytotoxicity measurement of drug-loaded liposomes. Conditions are moving from left to right: Bacteria only control, bacteria plus free drug, bacteria plus drug-loaded liposome without lipase, and bacteria plus drug-loaded liposome with lipase. Samples were incubated with bacteria at 37° C. for eight hours and plated. CFU were quantified to estimate bacteria viability. Error bars are plotted as standard deviation (n=3). RFU stands for “Relative Fluorescence Unit” and is plotted as fold change (FC) from initial fluorescence at time=0. Bacterial Culture and Cytotoxicity Assay: DH5α Escherichia coli were cultured in LB broth (Lennox) at 37° C. and plated on LB agar (Lennox) plates. LB broth was purchased from Millipore Sigma (Burlington, Mass.) and LB agar was purchased from Invitrogen (Carlsbad, Calif.). AMP and locked AMP were custom ordered from Genscript (Piscataway, N.J.). […] Bacterial cell viability was measured by making eight 10-fold serial dilutions, and plating three 10 μL spots on an LB agar plate. Plates were incubated overnight at 37° C., and CFUs were counted. […]

Chain of plasmin (P00747 581-810 limits assumed, species assumed): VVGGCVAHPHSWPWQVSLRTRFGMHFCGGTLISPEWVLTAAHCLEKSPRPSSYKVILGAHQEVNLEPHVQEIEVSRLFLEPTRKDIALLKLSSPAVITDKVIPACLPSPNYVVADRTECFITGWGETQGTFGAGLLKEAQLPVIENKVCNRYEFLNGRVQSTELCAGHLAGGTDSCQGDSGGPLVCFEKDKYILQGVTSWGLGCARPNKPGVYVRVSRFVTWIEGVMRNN
Chain of plasmin (P00747 97-580 partner limits assumed, species assumed): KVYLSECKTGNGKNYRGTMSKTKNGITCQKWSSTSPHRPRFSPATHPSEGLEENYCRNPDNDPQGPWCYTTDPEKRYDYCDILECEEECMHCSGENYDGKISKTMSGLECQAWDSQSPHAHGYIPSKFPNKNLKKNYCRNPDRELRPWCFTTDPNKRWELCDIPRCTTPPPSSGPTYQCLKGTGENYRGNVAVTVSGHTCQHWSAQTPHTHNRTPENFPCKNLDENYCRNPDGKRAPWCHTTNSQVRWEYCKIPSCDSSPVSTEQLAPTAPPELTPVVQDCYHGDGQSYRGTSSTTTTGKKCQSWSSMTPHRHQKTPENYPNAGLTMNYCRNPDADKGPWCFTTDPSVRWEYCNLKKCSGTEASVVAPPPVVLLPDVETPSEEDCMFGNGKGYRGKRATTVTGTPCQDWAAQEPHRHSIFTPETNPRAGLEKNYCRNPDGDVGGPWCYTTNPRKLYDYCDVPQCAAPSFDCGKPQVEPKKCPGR

state probability (relative cleavage velocity) after first U-gate [1] [%]	state 0 probability (relative cleavage velocity) after second U-gate ([1]; state 0 substrate added in large molar excess) [%]	Substance	cytolytic activity against bacteria compared to untreated controls ([2]; locked drug without protease)	reduction in bacterial colonies ([2]; protease-cleaved (TEVp))
45	93	5FAM-GLQRALEI-K(CPQ2)-k-C (5FAM-GLQRALEIK(CPQ2)[dK]C) [CC9, quenched fluorescent plasmin substrate (state 0)]	–	–
55	–	5FAM-KYLGRSYKV-K(CPQ2)-C (5FAM-KYLGRSYKVK(CPQ2)C) [CC6, quenched fluorescent protease substrate (state 1)]	–	–
–	–	EEEEEEEEENLYFQGRRRRRRRRR [Locked AMP p1, polyarginine AMP locked by polyglutamic acid via TEV-cleavable linker]	no significant cytolytic activity	significant reduction in bacterial colonies
